The text below walks through data of the domain aggregation screens of Martell et al. (2025).

The nature of this series: soluble fraction after stress (log2 fold change); higher = more stays soluble; pooled small domains, quantitative proteomics. The note with it: stress: pH 4. The method, boiled down: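 How much of each domain stays soluble after acid stress, expressed as a fold change, is used to gauge aggregation propensity. Pooled custom libraries of small domains underwent pH 4 stress before high-throughput quantitative proteomics. A higher log2 value means more of the domain stayed soluble.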

As to “HMTQPAEINRLVEQMGSSDYKSRQEAYERLHQMGPGILDLIYPYRNHADPEIQTRVRELILSYRW”, the “soluble fraction (log2)” value is -0.547. For “HMTQQNRDELYRRMIDAGWDQLVRNGIRSLRVEQVAAAVGIAKGTFYHFFDSKDDFIYAMLMENRQ”, the “soluble fraction (log2)” value is -1.03. As to “HMTQSPLHWSHRPIDLSELLTYLDRDGAFVYASGHKAPFTEVVRGFEHLLNIRLGDPRDVKRSVLQR”, the “soluble fraction (log2)” value is -0.282. For the sequence “HMTQTGEVIRWDAERGFGFIATADGRRHVFFHVRDFRGGAAPGVGLRVGFEEIQVGGKGPRAMDVRPL”, the “soluble fraction (log2)” value was -0.491. For “HMTRDGMTKEAFDSLLEDIMNILLDNGLKATTMGSIAKSLKMSKRTLYEIFSSKSQMVEEAIIASHTKMM”, the “soluble fraction (log2)” value was -0.00738. As to “HMTREAILDTAEELLQRRGYNAFSYHHIAVQLGIRNAAIHYHFPAKEDLGIELVSRFRIRLAE”, the “soluble fraction (log2)” value was -0.238. Consider “HMTRLSSREAQVISLVRDGMTNQQIAERLELSPLTIKNHVQNILRKLDVSNRAQAVAKAVKARLI”, for which the “soluble fraction (log2)” value amounted to 0.00472.

As to “HMTRRGPLTEGDRVQVRDPKGRFHQVILVRGGRFQSNRGGFNHDDVIGRPDGQVIITDEGRQFQIL”, the “soluble fraction (log2)” value worked out at 0.0981.

With “HMTRYEQLAAQIRQQIEDNIWQSGDRLPSLRDTVKQSGLSLMTVLQSYQLLESQGWITARPQSGYYVAHR”, the “soluble fraction (log2)” value is -0.169.

Regarding “HMTSGTLTLTQDTPVYTEPNKDGGVAYVQPQGDIQWDKYIFANGDNWYSFVQKNRDQEVRFYIAYSDVG”, the “soluble fraction (log2)” value was -0.623. Regarding “HMTSHSFVITEEVGQRLDRFISDQLDTVSRTMIQKHIRSGAVVVNGKQVKSNYLLVLNDRINIALK”, the “soluble fraction (log2)” value is -1.22. “HMTSISMDEKVVLGWHQVTTGAANSGMDKVVSNTSGLNVISPTWFKLSDNKGNYISIASKDYVDAAHKKGL”: the “soluble fraction (log2)” value is -0.317. On to “HMTSKTLSADGGENTRLDKFLSNHLPEISRTKIQKMINDGLVYVNQNYAKASLVLDGTELISYTIPD”, for which the “soluble fraction (log2)” value was determined as 0.263.

Consider “HMTSLTDDELSVVMLVREREISFDEITSETGFDAARLNSVLTMLKIKGIIDETTGKHYRISGGA”, for which the “soluble fraction (log2)” value is -0.492. Then “HMTSLVRTSNLDGFEPLARSIGVDPVMELMRFGIPPDALIRENMFISFIGFIRLLEHTALAG”, with 0.206; and “HMTSMYYLNKAVKEGNAKAIRQLLSAGININVRKRETSTPLDFAIKYKQTEIADLLRKHGGKTAEELKAEE”, with 0.0997. Regarding “HMTSNEKARNAASAERRADIVAAARELYEEQGLSKTSVQDITNRMGVARSLFYHYFPDKEAVTSAVLDDYV”, the “soluble fraction (log2)” value was -0.102.

In the case of “HMTSPELIELGERIRKRRQEMNLSQEALAEKAGISINTVSRVEGGQTAMSIEIFRKMIEILETDANGL”, the “soluble fraction (log2)” value was -0.804. With “HMTSRIHDYWTSPGQPGYAKIGWGTAGDFRRAKALIGEKIAANSPEDMRYLNQIIAQWHFDALGYWPGDH”, the “soluble fraction (log2)” value is -1.08. Turning to “HMTSRLLTPRQRYVFDTAMKEGFYDVPRRITLTELASVLDVAKSTLSAQLHRIESTVHHAYADDIRRRS”, the “soluble fraction (log2)” value was found to be 0.0724.

“HMTSSQLNIEELERRMMMHLEQNGFITRSIYTNLTGRLKWKATEDLKIFVEKGLIRKMGRGNQMYYVKVE”: the “soluble fraction (log2)” value was -0.895. Then “HMTSSQRDSILEFLKTRKDHPTADVVYMNVRKSFPNISLGTVYRNLTLLSDIGQIAKIRVGDGVDHFDADT”, with -0.073; and “HMTSSSGTITADWLNVRSGAGTNFSRLGSIAGGTRLTVISVHGEWYKITASFEGEIRTGYVHSQYVQMDGE”, with -1.59; and “HMTSTEQQIEQFIGTLVSLGGSAGNQRLLEALGWQDSIYQRVKQQLIDDGRIRPGRGRGGSVVLAE”, with -0.302. Under “HMTSVAGIERFLASGAIKGMGAATAKLIVEHFGADTLNMLDMYPERLTEIKGIGPKKATAIIEGYRELS” stands -0.595; under “HMTSVMAWRLITPIPQHGIIRSSQVQLQKHAPNSLKFLDVDSSPVGKQVKHGIAAGHWLSKDDFTE”, ≥ 0.43. Take “HMTTAASIGRLVRDARKQRGLTQHELASLLSTSQSAIHRIESGNQNLSLEMINRIAQALESPLIVPGG”: the “soluble fraction (log2)” value was -0.343.

For “HMTTIRQQAEVPLSAAGRRFDQALAEMFPAYSRSRLSGWIKAGAATLDGAPAAPRQLLRGGERVELDVELE”, the “soluble fraction (log2)” value was -0.316.

Take “HMTTKGGLVRDTVLNEFRDSEFTRREVELVLNGVASERTIRGALSEMVERGELTQVNFGISTRYRLNQ”: the “soluble fraction (log2)” value is -0.536. Then “HMTTLEGIEKYLGSGMIRGIGPAYAGRLTKVFGEAVFDVIEQSPERLREVEGIGPKRVSRIVSGWAEQ”, with -0.707; and “HMTTLLNHLKGTRLEAGLSQQALARLAGISRQAYSALESGSSNPSTEVALRLARALKTSVDHLFSLPE”, with 0.0864; and “HMTTQVPYTAKLININGGSVVNFRKEPGMNTTIIRTYPVGTEVTVLETGVNWSKVEIDGVTGYVSSYFL”, with -0.00711. Under “HMTTRLLTPRQRQVFDIAIREGFYDSPRRISLTELADLLGVAKSTLSVQLQRVESTIVHTFSEEIRRRS” stands -0.176; under “HMTTRQREALLDYLSRHPDQPLTVREIAAGVEPDGVSLSAVYRNLAELEAAGLIRRESRPGSREAVVQYV”, -0.192. On to “HMTTTTTYITNTDAVNIRQQATTSSTSLGKLAKNTILSVKKKSGDWYQITYKKQTAYIHASLVDKKTAKVT”, for which the “soluble fraction (log2)” value is ≥ 0.43. Under “HMTTVDYDALRAAILQQVVSEDTTPALTTENTEIKYKFKFGLDTWVDLDGGKIAPAVSAKSYEIQISFKG” stands 0.12. Then “HMTTYVNGSWSGWNGSTVVKLTDGSVWRQAEYHYEYHYAYRPQARLERDELFVEGMSRGVRV”, with -0.754; and “HMTVADMQQKANVKRRNSNSHEAILDATVKLLGSSGYIDFSIEKVASQAGVGKQTIYRWWPSRADLVLEVW”, with 0.223.

Regarding “HMTVAEVEDRMEASRVRQALDAVGEPHRTTIALAYFTGLTHTEIAQRMGVPLGTVKSRIRDGMAKMRTHLG”, the “soluble fraction (log2)” value was -0.172. Then “HMTVDHDERRSMILEAFMRLAAREGLHAVSLRGVAAEAGISLRLVQYYFETKARLMQSGLTALET”, with -0.501; and “HMTVKKLIINEDNSGRRIDNYLLSIFNSVPRSKIYNIIRKGEVRVNSSRIKPSYRLEEGDQVRIPPNLDYT”, with -0.0871.

Turning to “HMTVKRNILQELLKTAFKHPEDFRPSKTFYGETGIGQKRFWALYYGHKAVTQKEYYAVADYLG”, the “soluble fraction (log2)” value was found to be 0.202. Turning to “HMTVLDYNENVLSKVMNAAEINDSDKEAFIAFAKDYNSDDNLYLKKEELETAAGAWNARNVE”, the “soluble fraction (log2)” value is -0.552. As for “HMTVLTDEIKVILISYIKENDFKKKHGNRKMMMTAQDMYDELVEKGYKISYPTVTQYVQKYRENETT”, the “soluble fraction (log2)” value is -0.0952.

Regarding “HMTVMTGSQRRKKILELMRDAKEPLSGGALGKETGVSRHVVVQDIALLRTQGYPIVATARGYIINE”, the “soluble fraction (log2)” value is ≥ 0.43. On to “HMTVRLSVSADGKFFWNESQVSEEELFPRLQAEAAKEPQPDLHIRGDKNVRYEFVAQAMAAAQRAGVRKI”, for which the “soluble fraction (log2)” value is -0.423. With “HMTVSADQTAADAVIKLINAIGTVSENSGSAISAARSGYDALTDTQKKLVTNYNKLTQAEQVFSSLPS”, the “soluble fraction (log2)” value is -0.315. Under “HMTVSGNIAGDYKDYLPQKTDVINGMTVTYRMVDDAVYLASWKHAGQNHVFLFNDPVSVERAREMI” stands -0.965; under “HMTVSIDSLFDKFEDLQEQGLGDKTEEGQELRGLIRAFIEQEHLSVRITRSTSNQELLDMIEEAMQ”, -0.551; under “HMTVSRRYTENEMETALKAYLATHNFISRRDMQQEFALTIYSARKWLNHFVDVGLIERIGLKNAPIYKL”, 0.22.
